Experimental data published in patent US7109167.
Positions of bridges follow the written chain, without caps; N, C: chain ends. No end group written: not given here.

Legend:
VEGF receptors on HUVECs = assay: competition of 125I-VEGF binding to HUVECs
[1] = molecular target: endothelial cell receptor for TKPPR on human aortic endothelial cells (HAEC); assay: competition on HAEC: free TKPPR 5 µM against 1% BRU-114 bubbles
[2] = molecular target: endothelial cell receptor for TKPPR on human aortic endothelial cells (HAEC); assay: competition on HAEC: free TKPPR 50 µM against 5% BRU-114 bubbles
[3] = molecular target: endothelial cell receptor for TKPPR on human aortic endothelial cells (HAEC); assay: competition on HAEC: free TKPPR 25 µM against 2% BRU-114 bubbles
[4] = molecular target: endothelial cell receptor for TKPPR on human aortic endothelial cells (HAEC); assay: competition on HAEC: free TKPPR 10 µM against 1% BRU-114 bubbles
[5] = molecular target: endothelial cell receptor for TKPPR on human aortic endothelial cells (HAEC); assay: competition on HAEC: free TKPPR 25 µM against 1% BRU-114 bubbles
[6] = molecular target: endothelial cell receptor for TKPPR on human aortic endothelial cells (HAEC); assay: competition on HAEC: free TKPPR 50 µM against 1% BRU-114 bubbles
[7] = molecular target: endothelial cell receptor for TKPPR on human aortic endothelial cells (HAEC); assay: competition on HAEC: free TKPPR 100 µM against 5% BRU-114 bubbles
[8] = molecular target: receptor for TKPPR on rabbit aortic endothelial cells (RAEC); assay: competition on RAEC: free TKPPR 100 µM against 5% BRU-114 bubbles
[9] = molecular target: endothelial cell receptor for TKPPR on human aortic endothelial cells (HAEC); assay: competition on HAEC: free TKPPR 10 µM against 10% BRU-114 bubbles
[10] = molecular target: endothelial cell receptor for TKPPR on human aortic endothelial cells (HAEC); assay: competition on HAEC: free TKPPR 200 µM against 1% BRU-114 bubbles
[11] = molecular target: endothelial cell receptor for TKPPR on human aortic endothelial cells (HAEC); assay: competition on HAEC: free TKPPR 200 µM against 5% BRU-114 bubbles
[12] = molecular target: endothelial cell receptor for TKPPR on human aortic endothelial cells (HAEC); assay: competition on HAEC: free TKPPR 50 µM against 10% BRU-114 bubbles
[13] = molecular target: endothelial cell receptor for TKPPR on human aortic endothelial cells (HAEC); assay: competition on HAEC: free TKPPR 100 µM against 1% BRU-114 bubbles
[14] = molecular target: endothelial cell receptor for TKPPR on human aortic endothelial cells (HAEC); assay: competition on HAEC: free TKPPR 10 µM against 5% BRU-114 bubbles
[15] = molecular target: endothelial cell receptor for TKPPR on human aortic endothelial cells (HAEC); assay: competition on HAEC: free TKPPR 100 µM against 10% BRU-114 bubbles
[16] = molecular target: endothelial cell receptor for TKPPR on human aortic endothelial cells (HAEC); assay: competition on HAEC: free TKPPR 200 µM against 10% BRU-114 bubbles
[17] = molecular target: endothelial cell receptor for TKPPR on human aortic endothelial cells (HAEC); assay: competition on HAEC: free TKPPR 10 µM against TKPPR-beads, average n = 11
[18] = molecular target: endothelial cell receptor for TKPPR on human aortic endothelial cells (HAEC); assay: competition on HAEC: free TKPPR 25 µM against TKPPR-beads, average n = 11
[19] = molecular target: endothelial cell receptor for TKPPR on human aortic endothelial cells (HAEC); assay: competition on HAEC: free TKPPR 50 µM against TKPPR-beads, average n = 11
[20] = molecular target: endothelial cell receptor for TKPPR on human aortic endothelial cells (HAEC); assay: competition on HAEC: free TKPPR 100 µM against TKPPR-beads, average n = 11
[21] = molecular target: endothelial cell receptor for TKPPR on human aortic endothelial cells (HAEC); assay: competition on HAEC: free TKPPR 200 µM against TKPPR-beads, average n = 11
[22] = molecular target: endothelial cell receptor for TKPPR on human aortic endothelial cells (HAEC); assay: competition on HAEC: free TKPPR 500 µM against TKPPR-beads, average n = 11
[23] = molecular target: endothelial cell receptor for TKPPR on human aortic endothelial cells (HAEC); assay: competition on HAEC: free TKPPR 10 µM against 1% BRU-114 bubbles, average of two
[24] = molecular target: endothelial cell receptor for TKPPR on human aortic endothelial cells (HAEC); assay: competition on HAEC: free TKPPR 10 µM against 1% BRU-292 bubbles, average of two
[25] = molecular target: endothelial cell receptor for TKPPR on human aortic endothelial cells (HAEC); assay: competition on HAEC: free TKPPR 25 µM against 1% BRU-114 bubbles, average of two
[26] = molecular target: endothelial cell receptor for TKPPR on human aortic endothelial cells (HAEC); assay: competition on HAEC: free TKPPR 25 µM against 1% BRU-292 bubbles, average of two
[27] = molecular target: endothelial cell receptor for TKPPR on human aortic endothelial cells (HAEC); assay: competition on HAEC: free TKPPR 50 µM against 1% BRU-114 bubbles, average of two
[28] = molecular target: endothelial cell receptor for TKPPR on human aortic endothelial cells (HAEC); assay: competition on HAEC: free TKPPR 50 µM against 1% BRU-292 bubbles, average of two
[29] = molecular target: endothelial cell receptor for TKPPR on human aortic endothelial cells (HAEC); assay: competition on HAEC: free TKPPR 2.5 µM against 1% BRU-114 bubbles, average of two
[30] = molecular target: endothelial cell receptor for TKPPR on human aortic endothelial cells (HAEC); assay: competition on HAEC: free TKPPR 2.5 µM against 1% BRU-292 bubbles, average of two
[31] = molecular target: endothelial cell receptor for TKPPR on human aortic endothelial cells (HAEC); assay: competition on HAEC: free TKPPR (head: 10 µmol; text: 10 µM) against 1% BRU-114 bubbles
[32] = molecular target: endothelial cell receptor for TKPPR on human aortic endothelial cells (HAEC); assay: competition on HAEC: free TKPPR (head: 10 µmol; text: 10 µM) against 5% BRU-114 bubbles
[33] = molecular target: endothelial cell receptor for TKPPR on human aortic endothelial cells (HAEC); assay: competition on HAEC: free TKPPR (head: 100 µmol; text: 100 µM) against 1% BRU-114 bubbles
[34] = molecular target: endothelial cell receptor for TKPPR on human aortic endothelial cells (HAEC); assay: competition on HAEC: free TKPPR (head: 100 µmol; text: 100 µM) against 5% BRU-114 bubbles
[35] = molecular target: endothelial cell receptor for TKPPR on human aortic endothelial cells (HAEC); assay: competition on HAEC: BRU-305 50 µM against 2% BRU-114 bubbles
[36] = molecular target: endothelial cell receptor for TKPPR on human aortic endothelial cells (HAEC); assay: competition on HAEC: BRU-305 100 µM against 2% BRU-114 bubbles
[37] = molecular target: endothelial cell receptor for TKPPR on human aortic endothelial cells (HAEC); assay: competition on HAEC: BRU-305 200 µM against 2% BRU-114 bubbles
[38] = molecular target: endothelial cell receptor for TKPPR on human aortic endothelial cells (HAEC); assay: competition on HAEC: BRU-306 50 µM against 2% BRU-114 bubbles
[39] = molecular target: endothelial cell receptor for TKPPR on human aortic endothelial cells (HAEC); assay: competition on HAEC: BRU-306 100 µM against 2% BRU-114 bubbles
[40] = molecular target: endothelial cell receptor for TKPPR on human aortic endothelial cells (HAEC); assay: competition on HAEC: BRU-306 200 µM against 2% BRU-114 bubbles
[41] = molecular target: endothelial cell receptor for TKPPR on human aortic endothelial cells (HAEC); assay: 5% BRU-114 bubbles on HAEC, static
[42] = molecular target: KB cells (human epidermoid carcinoma cell line), cell surface; assay: 5% BRU-114 bubbles on KB cells, static
[43] = molecular target: endothelial cell receptor for TKPPR on human aortic endothelial cells (HAEC); assay: 5% BRU-114 bubbles on HAEC, static, no competitor
[44] = molecular target: receptor for TKPPR on rabbit aortic endothelial cells (RAEC); assay: 5% BRU-114 bubbles on RAEC, static, no competitor
[45] = molecular target: endothelial cell receptor for TKPPR on human aortic endothelial cells (HAEC); assay: 1% BRU-114 bubbles on HAEC, static, no competitor
[46] = molecular target: endothelial cell receptor for TKPPR on human aortic endothelial cells (HAEC); assay: 2% BRU-114 bubbles on HAEC, static, no competitor
[47] = molecular target: endothelial cell receptor for TKPPR on human aortic endothelial cells (HAEC); assay: 10% BRU-114 bubbles on HAEC, static, no competitor
[48] = molecular target: endothelial cell receptor for TKPPR on human aortic endothelial cells (HAEC); assay: microbubbles with 1% BRU-114 on HAEC, static, no competitor
[49] = molecular target: endothelial cell receptor for TKPPR on human aortic endothelial cells (HAEC); assay: microbubbles with 5% BRU-114 on HAEC, static, no competitor
[50] = molecular target: endothelial cell receptor for TKPPR on human aortic endothelial cells (HAEC); assay: 5% BRU-114 bubbles on HAEC, static, no competitor (control)
[51] = molecular target: endothelial cell receptor for TKPPR on human aortic endothelial cells (HAEC); assay: microbubbles with 5% BRU-114 on HAEC, static inverted culture
[52] = molecular target: endothelial cell receptor for TKPPR on human aortic endothelial cells (HAEC); assay: microbubbles on HAEC, static, manual count, 5% against 1% BRU-114
[53] = molecular target: endothelial cell receptor for TKPPR on human aortic endothelial cells (HAEC); assay: 1% BRU-114 bubbles on HAEC, static, no competitor, average of duplicates
[54] = molecular target: endothelial cell receptor for TKPPR on human aortic endothelial cells (HAEC); assay: 2% BRU-114 bubbles on HAEC, static, no competitor, average of duplicates
[55] = molecular target: endothelial cell receptor for TKPPR on human aortic endothelial cells (HAEC); assay: 5% BRU-114 bubbles on HAEC, static, no competitor (same control as the 20th table)
[56] = molecular target: endothelial cell receptor for TKPPR on human aortic endothelial cells (HAEC); assay: 5% BRU-114 bubbles on HAEC, static, cells pretreated 4 h with 0 ng/mL TNFα
[57] = molecular target: endothelial cell receptor for TKPPR on human aortic endothelial cells (HAEC); assay: 5% BRU-114 bubbles on HAEC, static, cells pretreated 4 h with 1 ng/mL TNFα
[58] = molecular target: endothelial cell receptor for TKPPR on human aortic endothelial cells (HAEC); assay: 5% BRU-114 bubbles on HAEC, static, cells pretreated 4 h with 5 ng/mL TNFα
[59] = molecular target: endothelial cell receptor for TKPPR on human aortic endothelial cells (HAEC); assay: 5% BRU-114 bubbles on HAEC, static, cells pretreated 4 h with 10 ng/mL TNFα

Binder: TKPPR-OH [TKPPR (L-threonyl-L-lysyl-L-prolyl-L-prolyl-L-arginine), free monomeric peptide]
- IC50 (VEGF receptors on HUVECs): 250 µM
- Average % Inhibition [1]: 45.7%
- Bubbles Bound [1]: 790 bubbles
- Bubbles Bound-5% [2]: 440 bubbles
- Bubbles Bound % [3]: 16 % of control
- % inhibition of bubble binding [4]: 82.7%
- Average % Inhibition [4]: 79.6%
- Bubbles Bound [4]: 528 bubbles
- Bubbles Bound-1% [4]: 10 bubbles
- Average % Inhibition [5]: 82%
- Bubbles Bound [5]: 106 bubbles
- Average % Inhibition [6]: 92.7%
- Bubbles Bound [6]: 56 bubbles
- Bubbles Bound-1% [6]: 5 bubbles
- Bubbles Bound-5% [7]: 12 bubbles
- HAEC bubbles bound [7]: 58 bubbles
- RAEC bubbles bound [8]: 21 bubbles
- Bubbles Bound-10% [9]: 1090 bubbles
- Bubbles Bound-1% [10]: 4 bubbles
- Bubbles Bound-5% [11]: 13 bubbles
- Bubbles Bound-10% [12]: 857 bubbles
- Average % Inhibition [13]: 93.7%
- Bubbles Bound [13]: 17 bubbles
- Bubbles Bound-1% [13]: 4 bubbles
- % more bubbles bound than without competitor [14]: 19%
- Bubbles Bound-5% [14]: 1340 bubbles
- Bubbles Bound-10% [15]: 399 bubbles
- Bubbles Bound-10% [16]: 66 bubbles
- % Inhibition [17]: 30.8%
- % Inhibition [18]: 50.7%
- % Inhibition [19]: 50.5%
- % Inhibition [20]: 62%
- % Inhibition [21]: 72.2%
- % Inhibition [22]: 70.6%
- Bubbles Bound-BRU-114 Formulation [23]: 535 bubbles
- Bubbles Bound-BRU-292 Formulation [24]: 833 bubbles
- Bubbles Bound-BRU-114 Formulation [25]: 75 bubbles
- Bubbles Bound-BRU-292 Formulation [26]: 718 bubbles
- Bubbles Bound-BRU-114 Formulation [27]: 9 bubbles
- Bubbles Bound-BRU-292 Formulation [28]: 462 bubbles
- Bubbles Bound-BRU-114 Formulation [29]: 1240 bubbles
- Bubbles Bound-BRU-292 Formulation [30]: 888 bubbles
- Bubbles Bound [31]: 96 bubbles
- Bubbles Bound [32]: 865 bubbles
- Bubbles Bound [33]: 5 bubbles
- Bubbles Bound [34]: 62 bubbles

Binder: CTKPPRC [Linear CTKPPRC (BRU-305)]
- Bubbles Bound % [35]: 97 % of control
- Bubbles Bound % [36]: 78 % of control
- Bubbles Bound % [37]: 88 % of control

Binder: CTKPPRC-OH (disulfide 1-7 (inferred)) [Cyclic disulfide CTKPPRC (BRU-306)]
- Bubbles Bound % [38]: 97 % of control
- Bubbles Bound % [39]: 71 % of control
- Bubbles Bound % [40]: 99 % of control

B1: DPPE-Glu-GTKPPR (BRU-114) in gas-filled microbubbles (peptide)
peptide: GTKPPR-OH
modifications: not fully specified (N-terminus); also: built into phospholipid gas-filled microbubbles
- HAEC bubble binding [41]: 1120 bubbles
- KB cell bubble binding [42]: 56 bubbles
- Bubbles Bound-5% [43]: 2780 bubbles
- HAEC bubbles bound [43]: 1420 bubbles
- RAEC bubbles bound [44]: 751 bubbles
- Bubbles Bound-1% [45]: 1640 bubbles
- Bubbles Bound % [46]: 100 % of control
- Bubbles Bound-10% [47]: 1860 bubbles
- bubbles bound, no competition [48]: 555 bubbles
- bubbles bound, no competition [49]: 726 bubbles
- Bubbles Bound [50]: 1250 bubbles
- Bubbles Bound [51]: 7050 bubbles
- % more bubbles bound than with the 1% composition [52]: 31%
- Bubbles Bound [53]: 737 bubbles
- Bubbles Bound [54]: 953 bubbles
- Bubbles Bound [55]: 1250 bubbles
- TKPPR-Bubbles bound [56]: 950 bubbles
- TKPPR-Bubbles bound [57]: 1520 bubbles
- TKPPR-Bubbles bound [58]: 1360 bubbles
- TKPPR-Bubbles bound [59]: 1020 bubbles
